Results from US20240043507A1 (RQ BIOTECHNOLOGY, published 2024).
Several values for one entry are separate records, joined by “and”; a condition that tells them apart may be missing. Identical values can stand only once.

B1: antibody 253H165L (antibody, V domains shown)
VH: not shown
VL: DIVMTQSPGTLSLSPGERATLSCRASQSVRSSYLAWYQQKPGQAPRLLIYGASRRGTGIPDRFSGSGSGTDFTLTISRLEPEDFAVYYCQQYGSSPWTFGQGTKVEIK
B2: antibody 165 (antibody, V domains shown)
VH: QVQLVQSGPEVKKPGTSVKVSCKASGFTFTSSAVQWVRQARGQRLEWIGWIVVGSGNTNYAQKFQESVTITRDMSTSTAYMELSSLRSEDTAVYYCAAPHCIGGSCHDAFDIWGQGTMVTVSS
VL: B1 VL
notes: also called mAb 165
B3: antibody 175 (antibody, V domains shown)
VH: EVQLVESGGGLIQPGGSLRLSCAASGLTVSRNYMSWVRQAPGKGLEWVSLIYSGGSTYYADSVKGRFTISRDNSKNTLYLQMNSLRAEDTAVYYCARDLRGEVWGQGTMVTVSS
VL: not shown
notes: also called mAb 175
B4: antibody 150 (antibody, V domains shown)
VH: QVQLVESGGGLIQPGGSLRLSCAASGVTVSSNYMSWVRQAPGKGLEWVSIIYSGGTTYYADSVKGRFTISRDSSMNTLYLQMNSLRAEDTAVYYCARDLMVYGIDVWGQGTTVTVSS
VL: EIVMTQSPSSLSASVGDRVTITCRASQGISSYLAWYQQKPGKAPKLLIYAASTLQSGVPSRFSGSGSGTDFTLTISSLQPEDFATYYCQQLDSYPPGYTFGQGTKVDIK
B5: antibody 132 (antibody, V domains shown)
VH: QVQLQQWGAGLLKPSETLSLTCAVYGGSFSGYYWSWIRQPPGKGLEWIGEINHSGSTNYNPSLKSRVTISVDTSKNQFSLKLSSVTAADTAVYYCARTDYYDSIDWGQGTLVTVSS
VL: QSVLTQEPSLTVSPGGTVTLTCGSSTGAVTSGHYPYWFQQKPGQVPRTLIYDTRNKHSWTPARFSGSLLGGKAALTLSGAQPEDEAEYYCLLSSSGARVFGGGTKLTVL
B6: antibody 40 (antibody, V domains shown)
VH: QVQLVESGGGLVQPGGSLRLSCAVSGFTVSRNYMSWVRQAPGKGLEWVSLIYSGGSTFYADSVKGRFTISRDNSKNTLYLQMNSLRAEDTAVYYCARDLFHRSGYHDYWGQGTLVTVSS
VL: not shown
notes: also called mAb 40
B7: antibody 222 (antibody, V domains shown)
VH: EVQLVESGGGLIQPGGSLRLSCAASGLTVSSNYMSWVRQAPGKGLEWVSVIYSGGSTFYADSVKGRFTISRDNSKNTLYLQMNSLGAEDTAVYYCARGEGSPGNWFDPWGQGTLVTVSS
VL: DVVMTQSPGTLSLSPGERATLSCRASQSVPSSYLAWYQQKPGQAPRLLIYGASTRATGIPDRFSGSGSGTDFTLTISRLEPEDFAVYYCQHYDTSPRFGGGTKVDIK
B8: antibody 158 (antibody, V domains shown)
VH: EVQLLESGGDLIQPGGSLRLSCAASGVTVSSNYMSWVRQAPGKGLEWVSIIYPGGSTFYADSVKGRFTISRDNSKNTLYLQMHSLRAEDTAVYYCARDLGSGDMDVWGKGTTVTVSS
VL: DIVMTQSPSFLSASVGDRVTITCRASQGISSYLAWYQQKPGKAPKLLIQAASTLQSGVPSRFSGSGSGTEFTLTISSLQPEDFATYYCQQLNSYRYTFGQGTKVEIK
notes: also called mAb 158
B9: antibody 58 (antibody, V domains shown)
VH: QVQLVESGGGLVQPGRSLRLSCAASGFTFDDYAMHWVRQPPGKGLEWVSGVSWNSGTIGYADSVKGRFIISRDNAKNSLYLQMNSLKAEDTALYYCAREVGGTFGVLISREGGLDYWGQGTLVTVSS
VL: SYELTQPPSVSVAPGQTARITCGGNTIGSKSVHWYQQRPGQAPVLVVYDDSDRPSGIPERFSGSNSGNTATLTISRVEAGDEADYYCQVWDSSSDRVVFGGGTKLTVL
notes: also called mAb 58
B10: antibody 88 (antibody, V domains shown)
VH: QLQLQESGPGLVKPSQTLSLTCTVSGGSISSGSYNWTWIRQPAGKGLEWIGRIYNSGSTNYNPSLKSRVTISVDTSKNQLSLKVRSVTAADTAVYYCARHCSGGTCYPKYYYGMDVWGQGTTVTVSS
VL: QSALTQPPSVSEAPRQRVTISCSGSSSNIGNNAVNWYQQFPGKAPKLLIYYDDLLPSGVSDRFSGSKSGTSASLAISGVQSEDEADYYCAAWDDSLNVVVFGGGTKLTVL
notes: also called mAb 88
B11: antibody 170 (antibody, V domains shown)
VH: QVQLVESGAEVKKPGESLKISCKGSGYSFTSYWIVWVRQMPGKGLEWMGIIYPGDSDTKYSPSFQGQVSISADKPISTAYLQWSRLKASDTAMYYCARLGNWLVDYWGQGTLVTVSS
VL: DIVMTQSPLSLSVTPGQPASISCKSSQSLLHSDGKTYLYWYLQKPGQPPQLLMYEVSNRFSGVPDRFSGSGSGTDFTLKISRVESEDVGVYYCMQSIQLPRGITFGQGTRLEIK
B12: antibody 269 (antibody, V domains shown)
VH: QVQLVESGGGLIQPGGSLRLSCAASGLTVNRNYMSWIRQAPGKGLEWVSVIYSGGSTFYADSVKGRFTISRDNSKNTLSLQMNSLRAEDTAIYYCARDFYEGSFDIWGQGTMVTVSS
VL: AIQLTQSPSFLSASIGDRVTITCRASQGISSYLAWYQQKPGKAPKLLIYAASTLQSGVPSRFSGSGSGTEFTLTISSLQPEDFASYYCQQLNSYPAPVFGPGTKVDIK
notes: also called mAb 269

molecular target: spike protein of SARS-CoV-2 strain Victoria (SARS-CoV-2/human/AUS/VIC01/2020) (SARS-CoV-2, UniProt P0DTC2 14-1273); test: cell-based or functional assay

Binder	IC50 (FRNT neutralisation)
B1	0.003 µg/mL
B2	0.034 µg/mL
B3	0.026 µg/mL
B4	0.012 µg/mL
B5	0.048 µg/mL
B6	0.026 µg/mL
B7	0.019 µg/mL and 0.017 µg/mL
B8	0.031 µg/mL
B9	0.041 µg/mL
B10	0.033 µg/mL
B11	0.025 µg/mL
B12	0.03 µg/mL

molecular target: spike protein of SARS-CoV-2 strain B.1.1.7 (SARS-CoV-2, UniProt P0DTC2 14-1273); test: cell-based or functional assay

Binder	IC50 (FRNT neutralisation)	FRNT50 ratio B.1.1.7/Victoria
B1	0.006 µg/mL	
B2	0.212 µg/mL	
B3	0.575 µg/mL	
B4	0.139 µg/mL	12
B5	0.337 µg/mL	7
B6	0.035 µg/mL	
B7	0.014 µg/mL and 0.011 µg/mL	
B8	0.254 µg/mL	
B9	0.116 µg/mL	
B10	0.058 µg/mL	
B11	0.105 µg/mL	4.2
B12	> 10 µg/mL	

molecular target: spike protein of SARS-CoV-2 strain B.1.351 (SARS-CoV-2, UniProt P0DTC2 14-1273); test: cell-based or functional assay

Binder	IC50 (FRNT neutralisation)	FRNT50 ratio B.1.351/Victoria
B1	0.013 µg/mL	
B2	0.054 µg/mL	
B3	> 10 µg/mL	
B4	0.35 µg/mL	30
B5	> 10 µg/mL	> 208
B6	0.738 µg/mL	
B7	0.017 µg/mL and 0.016 µg/mL	
B8	> 10 µg/mL	
B9	0.136 µg/mL	
B10	> 10 µg/mL	
B11	> 10 µg/mL	> 402
B12	> 10 µg/mL	

molecular target: spike protein of SARS-CoV-2 strain P.1 (SARS-CoV-2, UniProt P0DTC2 14-1273); test: cell-based or functional assay

Binder	IC50 (FRNT neutralisation)	FRNT50 ratio P.1/Victoria
B1	0.019 µg/mL	
B2	0.241 µg/mL	
B3	3.88 µg/mL	
B4	0.04 µg/mL	3.4
B5	> 10 µg/mL	> 208
B6	0.153 µg/mL	
B7	0.008 µg/mL and 0.009 µg/mL	
B8	> 10 µg/mL	
B9	0.236 µg/mL	
B10	> 10 µg/mL	
B11	> 10 µg/mL	> 402
B12	> 10 µg/mL	
